Reference: US20120315277A1, “Compositions and Methods for the Therapy and Diagnosis of Influenza” (priority 2011, published 2012)
Like-named read-outs stand apart in the source and are kept apart here.

Legend:
[1] = target: 23 amino acid synthetic M2e peptide of A/Fort Worth/1/50 (H1N1) (influenza A virus A/Fort Worth/1/50 (H1N1)); experiment: ELISA on coated 23mer M2e peptide
[2] = target: truncated M2 peptide SEQ ID NO 298; experiment: peptide ELISA, 5 µg/mL
[3] = target: truncated M2 peptide SEQ ID NO 303; experiment: peptide ELISA, 5 µg/mL
[4] = target: truncated M2 peptide SEQ ID NO 306; experiment: peptide ELISA, 5 µg/mL
[5] = target: truncated M2 peptide SEQ ID NO 316; experiment: peptide ELISA, 5 µg/mL
[6] = target: truncated M2 peptide SEQ ID NO 271; experiment: peptide ELISA, 5 µg/mL
[7] = target: truncated M2 peptide SEQ ID NO 314; experiment: peptide ELISA, 5 µg/mL
[8] = target: truncated M2 peptide SEQ ID NO 309; experiment: peptide ELISA, 5 µg/mL
[9] = target: truncated M2 peptide SEQ ID NO 299; experiment: peptide ELISA, 5 µg/mL
[10] = target: truncated M2 peptide SEQ ID NO 310; experiment: peptide ELISA, 5 µg/mL
[11] = target: truncated M2 peptide SEQ ID NO 308; experiment: peptide ELISA, 5 µg/mL
[12] = target: truncated M2 peptide SEQ ID NO 305; experiment: peptide ELISA, 5 µg/mL
[13] = target: truncated M2 peptide SEQ ID NO 307; experiment: peptide ELISA, 5 µg/mL
[14] = target: truncated M2 peptide SEQ ID NO 312; experiment: peptide ELISA, 5 µg/mL
[15] = target: truncated M2 peptide SEQ ID NO 311; experiment: peptide ELISA, 5 µg/mL
M2 peptide SEQ ID NO 273 = experiment: peptide ELISA, 5 µg/mL
[16] = target: truncated M2 peptide SEQ ID NO 301; experiment: peptide ELISA, 5 µg/mL
[17] = target: truncated M2 peptide SEQ ID NO 302; experiment: peptide ELISA, 5 µg/mL
[18] = target: truncated M2 peptide SEQ ID NO 315; experiment: peptide ELISA, 5 µg/mL
[19] = target: truncated M2 peptide SEQ ID NO 300; experiment: peptide ELISA, 5 µg/mL
[20] = target: truncated M2 peptide SEQ ID NO 313; experiment: peptide ELISA, 5 µg/mL
[21] = target: truncated M2 peptide SEQ ID NO 304; experiment: peptide ELISA, 5 µg/mL
A.Hong Kong.1.68.H3N2 [22] = target: T1, A.Hong Kong.1.68.H3N2; experiment: FACS, transfected 293 cells, 1 µg/mL
T1 M2: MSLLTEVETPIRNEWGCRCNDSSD

A.Caracas.1.71.H3N2 [23] = target: T2, A.Caracas.1.71.H3N2; experiment: FACS, transfected 293 cells, 1 µg/mL
T2 M2: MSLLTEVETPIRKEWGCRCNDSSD

A.Hong Kong.1144.99.H3N2 = target: T3, A.Hong Kong.1144.99.H3N2; experiment: FACS, transfected 293 cells
T3 M2: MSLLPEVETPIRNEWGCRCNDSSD

A.Hong Kong.1180.99 H3N2 = target: T4, A.Hong Kong.1180.99 H3N2; experiment: FACS, transfected 293 cells
T4 M2: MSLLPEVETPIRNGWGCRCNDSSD

[24] = target: truncated M2 peptide SEQ ID NO 298; experiment: peptide ELISA, 5 µg/mL; remark: listed apart in the source
[25] = target: truncated M2 peptide SEQ ID NO 299; experiment: peptide ELISA, 5 µg/mL; remark: listed apart in the source
[26] = target: truncated M2 peptide SEQ ID NO 309; experiment: peptide ELISA, 5 µg/mL; remark: listed apart in the source
A.Hong Kong.1.68.H3N2 [27] = target: T1, A.Hong Kong.1.68.H3N2; experiment: FACS, transfected HEK293, 1 µg/ml [D00006 FIG. 3C-1]
A.Caracas.1.71.H3N2 [28] = target: T2, A.Caracas.1.71.H3N2; experiment: as above

14C2 (chimeric mouse V-region/human IgG1 kappa 14C2 antibody)
EC50 [1]: 0.01 µg/mL
ELISA A450 [2]: 3.94
ELISA A450 [3]: 0.19
ELISA A450 [4]: 0.27
ELISA A450 [5]: 0.14
ELISA A450 [6]: 0.21
ELISA A450 [7]: 0.17
ELISA A450 [8]: 3.97
ELISA A450 [9]: 3.95
ELISA A450 [10]: 3.97
ELISA A450 [11]: 3.9
ELISA A450 [12]: 0.22
ELISA A450 [13]: 3.99
ELISA A450 [14]: 0.2
ELISA A450 [15]: 0.18
ELISA A450 (M2 peptide SEQ ID NO 273): 3.85
ELISA A450 [16]: 0.19
ELISA A450 [17]: 0.23
ELISA A450 [18]: 0.15
ELISA A450 [19]: 0.15
ELISA A450 [20]: 0.21
ELISA A450 [21]: 0.23

B1: 23K12 (antibody, V domains shown)
VH: EVQLVESGGGLVQPGGSLRISCAASGFTVSSNYMSWVRQAPGKGLEWVSVIYSGGSTYYADSVKGRFSFSRDNSKNTVFLQMNSLRAEDTAVYYCARCLSRMRGYGLDVWGQGTTVTVS
VL: DIQMTQSPSSLSASVGDRVTITCRTSQSISSYLNWYQQKPGKAPKLLIYAASSLQSGVPSRFSGSGSGTDFTLTISGLQPEDFATYYCQQSYSMPAFGQGTKLEIK
binding result (A.Hong Kong.1.68.H3N2 [22]): binds
binding result (A.Caracas.1.71.H3N2 [23]): binds
binding result (A.Hong Kong.1144.99.H3N2): no binding (tested: 1 µg/mL)
binding result (A.Hong Kong.1180.99 H3N2): no binding (tested: 1 µg/mL)
ELISA A450 [24]: 0.21
ELISA A450 [25]: 0.21
ELISA A450 [26]: 0.3

B2: 8I10 (antibody, V domains shown)
VH: QVQLQESGPGLVKPSETLSLTCTVSGSSISNYYWSWIRQSPGKGLEWIGFIYYGGNTKYNPSLKSRVTISQDTSKSQVSLTMSSVTAAESAVYFCARASCSGGYCILDYWGQGTLVTVS
VL: DIQMTQSPSSLSASVGDRVTITCRASQNIYKYLNWYQQRPGKAPKGLISAASGLQSGVPSRFSGSGSGTDFTLTITSLQPEDFATYYCQQSYSPPLTFGGGTRVEIK
binding result (A.Hong Kong.1144.99.H3N2): no binding (tested: 1 µg/mL)
binding result (A.Hong Kong.1180.99 H3N2): no binding (tested: 1 µg/mL)
binding result (A.Hong Kong.1.68.H3N2 [27]): binds
binding result (A.Caracas.1.71.H3N2 [28]): binds
